Values of other authors in paper PMC10524267.

Target: CX3CR1 (Homo sapiens) (UniProt P49238)
UniProt P49238, sequence (P49238 whole entry): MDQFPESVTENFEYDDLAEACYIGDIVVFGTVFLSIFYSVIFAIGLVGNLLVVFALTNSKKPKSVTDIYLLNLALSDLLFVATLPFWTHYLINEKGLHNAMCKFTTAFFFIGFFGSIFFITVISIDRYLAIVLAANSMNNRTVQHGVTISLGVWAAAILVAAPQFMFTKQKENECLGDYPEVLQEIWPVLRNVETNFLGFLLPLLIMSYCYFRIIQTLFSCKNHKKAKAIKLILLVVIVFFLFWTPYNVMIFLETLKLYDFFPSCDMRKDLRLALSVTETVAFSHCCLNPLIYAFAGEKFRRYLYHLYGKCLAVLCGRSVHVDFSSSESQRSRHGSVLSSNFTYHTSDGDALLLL

Kd: 0.91 nM
Substance: CX3CL1 (from UniProt P78423)
